The record followed here is article PMC12173945, “Import mechanism of peroxisomal proteins with an N-terminal signal sequence” (Nature Cell Biology, 2025).

The labels stand for the following.
B1: GST-tagged wild-type yeast PEX39 (GST–PEX39) [yeast] / yeast PEX7 [yeast (S. cerevisiae)] (parent complex)
chain 1: MAAGGELSYEELLDHILNNKPIPNIVEVPNVTLDEGLASTPSLRPRPRPWEGQLQHQSHQGSLDKPNISLDIDQESLEGMTSLTRLSECYDIQSKLQINDSDNDNDDNNNDNNKGDGNDDDNNTVTANPTAR
chain 2: MLRYHMQGFSGYGVQYSPFFDNRLAVAAGSNFGLVGNGKLFILEIDRSGRIVEVNSFLTQDCLFDLAWNESHENQVLVAQGDGTLRLFDTTFKEFPIAIFKEHEREVFSCNWNLVNRQNFLSSSWDGSIKIWSPLRKQSLMTLTPRPLEITKMVDPLNAIILKKKSFTGISKNRNCVYQAQFSPHDQNLVLSCSGNSYASLFDIRLPSGKNQNNFLVHSGLEALTCDFNKYRPYVVATGGVDNAIRIWDIRMLNKNESATIKRTVPGQLHNSSCINEIPNAHGLAIRKVTWSPHHSNILMSASYDMTCRIWRDLSNDGAKETYKTNSTDATKGSIFNFTQHSEFVFGADWSLWGKPGYVASTAWDGNLFVWNGLG

This assay covers variants of B1. Nature of the assay: bead sedimentation (GST pull-down depletion) assay, SDS-PAGE with Coomassie quantification of PEX7 left in the supernatant; 1 µM yeast PEX7; varying GST-PEX39 concentrations; 1 h; 25 °C; parent: 0.6 nM.
Regarding chain 1 Y9A, chain 1 L12A, chain 1 L13A, chain 1 I16A, chain 1 L17A, the screen value worked out at 610 nM.
